# Measured values from patent US20100062980A1 (NATIONAL UNIVERSITY OF SINGAPORE, published 2010).
# B1: β-cardiotoxin (ligand)
# chain: RKCLNTPLPLIYTTCPIGQDKCVKMTIKKLPSKYDVIRGCIDICPKSSADVEVLCCDTNKCNK
# notes: also called beta-cardiotoxin; AY354198 protein
# Experiments:
# [1] = target: T1, cloned human β-adrenergic receptor subtype 1 (human, UniProt P08588 1-477)
# [2] = target: T2, cloned human β-adrenergic receptor subtype 2 (human, UniProt P07550 1-413)
# [3] = target: T1, cloned human β-adrenergic receptor …; assay: radioligand displacement ((-)-[3H]CGP-12177), Ki from IC50 by Cheng-Prusoff
# [4] = target: T2, cloned human β-adrenergic receptor …; assay: as above
# T1 sequence (P08588 whole entry): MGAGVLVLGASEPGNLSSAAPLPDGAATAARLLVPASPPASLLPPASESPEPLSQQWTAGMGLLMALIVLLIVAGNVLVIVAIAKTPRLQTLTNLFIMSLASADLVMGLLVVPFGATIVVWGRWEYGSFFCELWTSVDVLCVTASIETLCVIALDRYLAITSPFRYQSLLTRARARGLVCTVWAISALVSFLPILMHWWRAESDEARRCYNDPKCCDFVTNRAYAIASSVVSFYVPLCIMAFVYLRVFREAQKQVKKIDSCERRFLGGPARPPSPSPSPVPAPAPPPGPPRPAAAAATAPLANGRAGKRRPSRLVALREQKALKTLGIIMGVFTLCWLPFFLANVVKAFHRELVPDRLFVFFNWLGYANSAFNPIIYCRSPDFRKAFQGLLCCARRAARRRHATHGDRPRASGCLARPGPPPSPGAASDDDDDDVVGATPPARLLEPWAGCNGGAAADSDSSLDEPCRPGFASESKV
binder,measurement,setting,value
B1,IC50,[1],10 µM
same,IC50,[2],5 µM
same,Ki,[3],5.3 µM
same,Ki,[4],2.3 µM
